The target in the data set is 2392/10 ZFP-VP16 fusion (Artificial Sequence). The data set can be described thus: cell_activity; Epo secretion, 2392/10-7 CHO cells; additional three-fold over CMV promoter. From the text:
Three different erythropoietin (Epo)-expressing constructs were constructed. In the first, Epo expression was controlled by a CMV promoter fused to a β-globin intron (CMV). In the second, Epo expression was controlled by a CMV promoter containing ten upstream copies of the 2392/10 binding site, fused to a β-globin intron (CMVz10, Example 6). In the third, Epo expression was controlled by a SRα promoter with six additional copies of the 2392/10 binding site immediately upstream of the promoter (SRαZ6, Example 5). The three constructs were transiently transfected into either parental DG44 CHO cells or the ZFP-expressing 2392/10-7 cell line. After 24 hours, Epo secretion was measured by ELISA.

B1: CMVz10 promoter target-site insert (dsDNA)
DNA 1: ACGCGTTCATTCCACAGCTCTCATTCCACAGCTCTCATTCCACAGCTCTCATTCCACAGCTCTCATTCCACAGCTCTCATTCCACAGCTCTCATTCCACAGCTCTCATTCCACAGCTCTCATTCCACAGCTCTCATTCCACAGTCACGCGT
DNA 2: ACGCGTGACTGTGGAATGAGAGCTGTGGAATGAGAGCTGTGGAATGAGAGCTGTGGAATGAGAGCTGTGGAATGAGAGCTGTGGAATGAGAGCTGTGGAATGAGAGCTGTGGAATGAGAGCTGTGGAATGAGAGCTGTGGAATGAACGCGT
As for B1, the activity was 3 fold activation.

The values are drawn from patent publication US20060063231, “Compositions and methods for protein production” (Sangamo BioSciences, Inc., published 2006).
